{"source": "patent US20210214454A1", "binders": {"B1": {"name": "ADC-1013 analogue (antibody, INN chains, looked up, IgG1, V domains shown)", "VH": "EVQLLESGGGLVQPGGSLRLSCAASGFTFSTYGMHWVRQAPGKGLEWLSYISGGSSYIFYADSVRGRFTISRDNSENALYLQMNSLRAEDTAVYYCARILRGGSGMDLWGQGTLVTVSS", "VL": "QSVLTQPPSASGTPGQRVTISCTGSSSNIGAGYNVYWYQQLPGTAPKLLIYGNINRPSGVPDRFSGSKSGTSASLAISGLRSEDEADYYCAAWDKSISGLVFGGGTKLTVL"}}, "key": {"[1]": {"target": "cynomolgus CD40 protein expressed on CHO-S cells (cynomolgus) (UniProt G7PG38)", "sequence (G7PG38 entry or part of it)": "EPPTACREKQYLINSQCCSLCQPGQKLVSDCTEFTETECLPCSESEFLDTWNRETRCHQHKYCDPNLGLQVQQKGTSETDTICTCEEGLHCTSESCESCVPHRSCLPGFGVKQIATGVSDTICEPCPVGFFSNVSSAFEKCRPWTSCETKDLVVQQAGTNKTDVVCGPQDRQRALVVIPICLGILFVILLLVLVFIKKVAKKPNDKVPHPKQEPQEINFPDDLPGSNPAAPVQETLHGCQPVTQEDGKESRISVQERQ", "assay": "flow cytometry on CHO-S cells transiently expressing cynomolgus CD40; AF647 anti-human IgG (H+L) secondary; GeoMean RL1-H"}, "[2]": {"target": "human CD40 protein expressed on cells (human) (UniProt P25942)", "sequence (P25942 21-277 limits assumed)": "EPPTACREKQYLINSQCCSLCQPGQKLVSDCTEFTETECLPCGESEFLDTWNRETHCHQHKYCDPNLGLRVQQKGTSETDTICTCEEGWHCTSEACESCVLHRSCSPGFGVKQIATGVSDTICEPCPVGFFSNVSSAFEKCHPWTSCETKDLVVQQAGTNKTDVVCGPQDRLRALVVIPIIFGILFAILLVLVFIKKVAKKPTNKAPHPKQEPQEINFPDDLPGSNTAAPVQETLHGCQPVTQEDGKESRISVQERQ", "assay": "flow cytometry on CHO-S cells transiently expressing human CD40; AF647 anti-human IgG (H+L) secondary; GeoMean RL1-H"}}}
{"binder": "B1", "values": [{"measurement": "EC50 (read off the curve)", "setting": "[1]", "value": 0.01, "unit": "µg/mL"}, {"measurement": "EC50 (read off the curve)", "setting": "[2]", "value": 0.01, "unit": "µg/mL"}]}
